Experimental data as given in publication PMC5497066.
One block for each substance: values may come before it.

Columns and labels:
[1] = molecular target: C-terminal truncation mutant of tetradecamer GroEL, Δ526 (E. coli) (UniProt P0A6F5)
[2] = molecular target: C-terminal truncation mutant of tetradecamer GroEL, Δ526 (E. coli) (UniProt P0A6F5); experiment: cryo-EM structure; acid-urea denatured PepQ (7 μM final) titrated into GroEL or Δ526 (8 μM tetradecamers) in TKM buffer, no nucleotide, room temperature 5 min; asymmetric 3D classification and refinement
PepQ-24TMR (E. coli) [3] = molecular target: PepQ-24TMR (E. coli) (UniProt P21165); experiment: single-molecule two-colour co-incidence detection; PepQ-24OG and PepQ-24TMR 1:1, denatured in acid-urea, spontaneous folding at 2 nM monomer in TKM buffer with 0.1 mg ml^-1 BSA, 23 °C, 10 min, then diluted 20-fold to 100 pM
PepQ-24TMR (E. coli) [4] = molecular target: PepQ-24TMR (E. coli) (UniProt P21165); experiment: single-molecule two-colour co-incidence detection; PepQ-24OG and PepQ-24TMR 1:1, denatured, refolded at 100 nM total monomer with GroEL, GroES and ATP at 23 °C, then diluted 1,000-fold to 100 pM; cross-correlation of fluorescence bursts

observed folding rate constant of PepQ by recovery of enzymatic activity, bound to Δ526 (200 nM) and refolded with GroES (400 nM) and ATP (2 mM) [1]: 0.106 min⁻¹
Substance: wild type E. coli PepQ (from UniProt P21165 1-443) (enzyme)

stoichiometry N [2]: 14
Substance: C-terminal truncation mutant of tetradecamer GroEL, Δ526 (from UniProt P0A6F5 2-526) (domain or fragment)

Substance: PepQ-24OG (from UniProt P21165 1-443) (enzyme)
co-incidence (PepQ-24TMR (E. coli) [3]): < 1% | co-incidence (most likely overlap) (PepQ-24TMR (E. coli) [3]): 0.75% | coincident fraction (PepQ-24TMR (E. coli) [4]): 10%
